The record followed here is the RNAGym collection of RNA variant scans (doi:10.7554/elife.80360).

Sequences and labels used below:
B1: Hairpin Ribozyme (parent)
chain: GUCCUCUUUCACGUGCGCGUGAAAGAGAGAAGUGAACCAGAGAAACACACGUUGUGGUAUAUUACCUGGUA

This data set covers variants of B1. The data set can be described thus: self-cleavage, relative activity (ratio to wild type); higher = more cleavage; co-transcriptional.
Regarding G29U C66A, the self-cleavage is 0.205.
As to G29U C66G, the self-cleavage stood at 0.233.
Regarding G29U G68A, the self-cleavage amounted to 0.097.
The same measure for G29U A41U: 0.116; for G29U A41G: 0.082.
Regarding A28G G57C, the self-cleavage was determined as 0.263.
Turning to G29C A36C, the self-cleavage is 0.179.
For the variant G29C A36U, the self-cleavage amounted to 0.0836.
As for A28G A39U, the self-cleavage was found to be 0.536.
For the variant A28G A39C, the self-cleavage came to 0.748.
Regarding A28U A49G, the self-cleavage stood at 0.365.
For A28G A71G, the self-cleavage was 0.941.
As to A28G A71C, the self-cleavage amounted to 1.26.
Regarding A28G G68U, the self-cleavage turned out to be 0.372.
Consider A28C G34A, for which the self-cleavage turned out to be 0.753.
As for A28C G34U, the self-cleavage stood at 1.23.
The same measure for G29A U33C: 0.0835.
On to G29U A44U, for which the self-cleavage came to 0.125.
G29U A44C: the self-cleavage was found to be 0.251.
Turning to G29A C48U, the self-cleavage came to 0.0646.
On to G29A C48A, for which the self-cleavage is 0.131.
The same measure for G29C G54U: 0.162.
In the case of A30C C38A, the self-cleavage was found to be 0.183.
In the case of A30C C38U, the self-cleavage was 0.209.
For A30C C38G, the self-cleavage worked out at 0.0718.
Next, G29C A47U: 0.093; A28G U55G: 0.427.
The same measure for G29A G32U: 0.0536.
G29A C66U: the self-cleavage was 0.194.
In the case of A30C G68A, the self-cleavage is 0.0646.
For the variant A30C G34C, the self-cleavage was determined as 0.79.
For G29A U58A, the self-cleavage turned out to be 0.165.
As for A28G A30U, the self-cleavage amounted to 0.0576.
For the variant G29C G68C, the self-cleavage worked out at 0.124.
Next, G29A U62C: 0.0819; G27U U67G: 0.111.
Next, G27U U67C: 0.0907.
Next, A30C C65A: 0.0386.
Take A30C C65U: the self-cleavage was 0.12.
Regarding A30C U53A, the self-cleavage is 0.0771.
A28C G51U: the self-cleavage turned out to be 0.746.
Regarding G29C A71U, the self-cleavage stood at 0.21.
The same measure for A28U G54C: 0.219; for A28U G54A: 0.32.
For A28C G42U, the self-cleavage was 0.0852.
Turning to G29A G54A, the self-cleavage came to 0.141.
Take A28C G54C: the self-cleavage was 0.187.
A28C G54A: the self-cleavage stood at 0.301.
As to A30C U60C, the self-cleavage amounted to 0.279.
As for A30C A61U, the self-cleavage was determined as 0.097.
In the case of A30C A61G, the self-cleavage is 0.12.
For the variant A28U C48G, the self-cleavage was determined as 0.195.
Next, G29U C48U: 0.124; G29U C48A: 0.0831; A28U A47G: 0.0453.
On to A28U A47U, for which the self-cleavage stood at 0.125.
Take A28U G40U: the self-cleavage came to 0.13.
Regarding G29C C66G, the self-cleavage worked out at 0.137.
On to G29C C66U, for which the self-cleavage was 0.135.
For G29C C66A, the self-cleavage stood at 0.182.
In the case of A28G C50A, the self-cleavage is 0.415.
With A30C A39U, the self-cleavage amounted to 0.0707.
Next, A30C A39C: 0.12; A28U G51A: 0.716; G29U A36U: 0.104.
Turning to A28U U33C, the self-cleavage was 0.079.
Take A28U U33A: the self-cleavage worked out at 0.152.
G29U U70G: the self-cleavage turned out to be 0.315.
As to A28G C48U, the self-cleavage stood at 0.276.
For the variant A28C C48A, the self-cleavage was determined as 0.122.
Take G27U C50G: the self-cleavage amounted to 0.175.
Next, G27U C50U: 0.214; G29A G34A: 0.201; A28G G29A: 0.13.
Take G27U G51U: the self-cleavage turned out to be 0.402.
Regarding A28U A44C, the self-cleavage turned out to be 0.179.
Turning to A28U A44G, the self-cleavage amounted to 0.25.
With A30C A59G, the self-cleavage came to 0.0647.
On to A30C A59C, for which the self-cleavage came out at 0.0289.
A30C A59U: the self-cleavage was 0.169.
The same measure for G29C G57C: 0.131; for G29A G42C: 0.0675; for G29A G42U: 0.197.
Next, A28C C66A: 0.0844; G29C U70C: 0.133.
In the case of G29A C46A, the self-cleavage is 0.0992.
As to G29A C46U, the self-cleavage is 0.238.
Take G29A C46G: the self-cleavage was determined as 0.0584.
As for G29A U67G, the self-cleavage is 0.0868.
Next, G29A U67C: 0.106; G29A U67A: 0.0562.
The same measure for A28C A30C: 0.0316; for A28C A30G: 0.136; for A28C A30U: 0.126.
Turning to A30C A71U, the self-cleavage was determined as 0.104.
For the variant G29C G42C, the self-cleavage stood at 0.142.
Take A28C U58C: the self-cleavage was 0.545.
Regarding G29A A45C, the self-cleavage worked out at 0.0675.
For the variant G29A A45U, the self-cleavage was 0.0463.
On to G27U G32C, for which the self-cleavage stood at 0.129.
As to G29U A59C, the self-cleavage came to 0.0619.
The same measure for A30C U62A: 0; for G29A U53C: 0.234; for G29A U53G: 0.0705.
For G29U A71C, the self-cleavage was 0.152.
Next, A28U C38G: 0.0619; A28U C38A: 0.159.
Next, G27U C38G: 0.17; G27U C38A: 0.12; A28G C65U: 0.498.
For the variant G29C A45C, the self-cleavage is 0.207.
As to G27U U70G, the self-cleavage came out at 0.228.
The same measure for G29A A61U: 0.096.
As for G29U C37U, the self-cleavage amounted to 0.192.
The same measure for A28G C46U: 0.137.
The same measure for G27U U63C: 0.0849; for G27U U60A: 0.243; for G29U U67C: 0.101.
The same measure for G29U U58A: 0.154.
Regarding A28G C37U, the self-cleavage came out at 0.644.
As for A28C U55A, the self-cleavage was 0.155.
For A28U C37A, the self-cleavage is 0.143.
With G29U C50U, the self-cleavage came out at 0.163.
Next, A28C G29A: 0.199; A30C A44U: 0.106.
For the variant A30C A44G, the self-cleavage was 0.145.
A28G A44C: the self-cleavage is 0.202.
Take G29A A39U: the self-cleavage came to 0.107.
With G29U A35C, the self-cleavage was found to be 0.11.
G29U A35G: the self-cleavage worked out at 0.137.
Turning to G29C C37G, the self-cleavage worked out at 0.084.
For the variant G29C C37A, the self-cleavage came to 0.14.
As for A30C G32U, the self-cleavage stood at 0.188.
As for A30C G32C, the self-cleavage is 0.12.
On to G29C C65U, for which the self-cleavage amounted to 0.135.
Turning to A28U U52G, the self-cleavage was 0.374.
The same measure for A30C G40A: 0.116.
Consider A30C G40U, for which the self-cleavage is 0.0963.
As for A30C G40C, the self-cleavage is 0.0198.
For the variant G29C U62C, the self-cleavage came out at 0.113.
On to G27U G34C, for which the self-cleavage was determined as 1.16.
As for A30C A43C, the self-cleavage amounted to 0.261.
As for G27U G57U, the self-cleavage came out at 0.144.
With G27U G57A, the self-cleavage came to 0.209.
G29U A30C: the self-cleavage came out at 0.154.
Next, A28C G69U: 0.0989; A28G G51A: 1.25.
For A28C G57C, the self-cleavage stood at 0.145.
Next, A28C G57U: 0.0228.
For the variant G29C C38G, the self-cleavage amounted to 0.122.
The same measure for G29C C38U: 0.145; for G29C U63A: 0.217.
As for G29C C48A, the self-cleavage was determined as 0.136.
As for A30C G51U, the self-cleavage was found to be 0.178.
Take A30C G51A: the self-cleavage came to 0.26.
A30C G51C: the self-cleavage stood at 0.0477.
G27U A64G: the self-cleavage came out at 0.205.
Regarding A28G G42C, the self-cleavage turned out to be 0.47.
For G29A A71U, the self-cleavage was found to be 0.126.
Next, G29U G69U: 0.099; G27U C37U: 0.22; G27U C37G: 0.109.
For G29U U53A, the self-cleavage is 0.103.
Consider A28U U70G, for which the self-cleavage came to 0.338.
With A28C U60C, the self-cleavage amounted to 0.558.
Take A28C U60G: the self-cleavage worked out at 0.383.
As to A28G U70G, the self-cleavage stood at 0.978.
